Laboratory results taken from US20200268901A1.
pEC50: −log10 of the molar value.

Molecular target: human GITR on cells (activated human T cells; 3A9-hGITR cells) (human) (UniProt Q9Y5U5)
Experiment: flow cytometry on anti-CD3/CD28-activated human CD4 T cells, GMFI (PE); fitted value of a flat control curve, unit from the axis

Chain of human GITR on cells (activated human T cells; 3A9-hGITR cells) (human) (Q9Y5U5 26-241): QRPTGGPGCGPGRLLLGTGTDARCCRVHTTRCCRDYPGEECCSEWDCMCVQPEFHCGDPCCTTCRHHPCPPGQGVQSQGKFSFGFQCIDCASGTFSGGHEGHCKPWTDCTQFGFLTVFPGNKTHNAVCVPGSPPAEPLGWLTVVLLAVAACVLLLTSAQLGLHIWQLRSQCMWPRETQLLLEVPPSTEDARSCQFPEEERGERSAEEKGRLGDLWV

pEC50: 6.88
Substance: hIgG1 Isotype Control (antibody)
